# Target: Sc eIF4E (residues T25–L213), His6 tag removed (Saccharomyces cerevisiae) (UniProt P07260)
# Assay: ITC
# Sequence of Sc eIF4E (residues T25–L213), His6 tag removed (Saccharomyces cerevisiae) (P07260 25-213): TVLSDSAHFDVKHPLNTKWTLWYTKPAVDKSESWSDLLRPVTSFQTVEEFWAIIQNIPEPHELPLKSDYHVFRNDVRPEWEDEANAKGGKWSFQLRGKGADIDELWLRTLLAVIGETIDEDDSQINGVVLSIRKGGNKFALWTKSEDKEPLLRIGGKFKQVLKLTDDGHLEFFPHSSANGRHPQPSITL
# Sequence of Sc p20 canonical motif (C)-GB1 (domain or fragment) (P12962 whole entry, the tested form may be a part): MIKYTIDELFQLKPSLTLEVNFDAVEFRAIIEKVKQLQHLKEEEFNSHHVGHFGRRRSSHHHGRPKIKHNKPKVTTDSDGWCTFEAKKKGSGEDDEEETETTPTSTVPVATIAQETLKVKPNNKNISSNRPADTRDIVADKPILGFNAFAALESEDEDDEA
row,Substance,Kd [nM]
1,Sc p20 canonical motif (C)-GB1 (domain or fragment),20
2,Sc eIF4G (residues V448–N500; C+L+NC)-GB1 (from UniProt P39935 448-500) (domain or fragment),70
3,Sc eIF4G canonical motif (C)-GB1 (domain or fragment),2000

# — publication PMC6061780
